Substrate in the data set: C[C@@H](O)C(=O)O
Briefly: TP_TRANSPORTER: uptake in Xenopus laevis oocytes. The format is functional, cell-based. To be noted: Oocyte.

A word on the Km: it is the concentration of substrate that gives half-maximal velocity.

B1: Monocarboxylate transporter 1 (Rattus norvegicus), P53987 (protein)
chain: MPPAIGGPVGYTPPDGGWGWAVVVGAFISIGFSYAFPKSITVFFKEIEIIFSATTSEVSWISSIMLAVMYAGGPISSILVNKYGSRPVMIAGGCLSGCGLIAASFCNTVQELYFCIGVIGGLGLAFNLNPALTMIGKYFYKKRPLANGLAMAGSPVFLSTLAPLNQAFFGIFGWRGSFLILGGLLLNCCVAGSLMRPIGPQQGKVEKLKSKESLQEAGKSDANTDLIGGSPKGEKLSVFQTVNKFLDLSLFTHRGFLLYLSGNVVMFFGLFTPLVFLSNYGKSKHFSSEKSAFLLSILAFVDMVARPSMGLAANTRWIRPRVQYFFAASVVANGVCHLLAPLSTTYVGFCIYAGVFGFAFGWLSSVLFETLMDLVGPQRFSSAVGLVTIVECCPVLLGPPLLGRLNDMYGDYKYTYWACGVILIIAGLYLFIGMGINYRLVAKEQKAEEKKRDGKEDETSTDVDEKPKKTMKETQSPAPLQNSSGDPAEEESPV
B1: the Km was determined as 5.6 mM.
